According to article PMC3958483, “Fine Specificity and Molecular Competition in SLAM Family Receptor Signalling” (PLoS ONE, 2014):

T1: EAT-2 (Homo sapiens, UniProt O14796)
T1 sequence (O14796 1-132): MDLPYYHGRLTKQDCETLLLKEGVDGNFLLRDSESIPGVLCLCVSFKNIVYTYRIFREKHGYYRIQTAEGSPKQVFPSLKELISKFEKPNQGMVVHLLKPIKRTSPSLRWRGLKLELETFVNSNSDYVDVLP


How the values were obtained:
EAT-2 = molecular target: T1, EAT-2; assay: EAT-2 expression in NK92 after RNA interference; assay type: cell-based; conditions: shRNA, NK92 cells; from 0.44 μM
Protocol: Lentiviral constructs expressing gene-specific shRNAs in vector pLKO.1 were obtained from Open Biosystems. […] As a non-targeting control, the hairpin sequence 5′-[…] was expressed in pLKO.1. Lentiviral particles were produced through polyethylenimine (PEI-Sigma) co-transfection of 293 T cells with pLKO.1 along with packaging vectors pMD2.G and pSPAX2 (Addgene; Didier Trono Laboratory). Virus was produced in RPMI 1640/10% heat-inactivated FCS for 48–72 hours. Viral supernatants were collected and NK92 cells were transduced twice overnight in the presence of 1000 U/ml IL-2. Cells with stable shRNA expression were selected using 3 μg/ml puromycin (Invitrogen) for 72 hours prior to use in functional assays.
For quantitation of protein expression, NK92 cell lysates were prepared using buffer (150 mM NaCl, 20 mM Tris-HCl pH 7.4, 10% glycerol, 2 mM EDTA, 10 mM NaF, 1 mM PMSF) containing 0.5% Triton X-100. Lysates were resolved by SDS-PAGE under reducing conditions using Novex gradient gels and transferred to nitrocellulose membranes for western blotting by standard protocols. […] SHP-2 levels in 10^5 cell equivalents were analysed in a similar manner with recombinant SHP-2 N+C as a standard (25, 50 and 100 ng) and anti-SHP-2 (Cell Signaling #3752). […] Quantitation of protein expression was performed using LI-COR Odyssey Sa software version 1.0. […]

[1] = Pull-down with phosphorylated CD244 ITSM1 from NK cell lysates, LC-MS/MS; assay type: binding; conditions: human NK cell lysates; compared with control phosphopeptide SHIP-1 Y865
Protocol: For pull-down of associated proteins, streptavidin Sepharose (GE Healthcare) was pre-coated with saturating amounts of peptide or EAT-2. NK92 cells (4×10^8) were treated with 500 μM pervanadate for 15 minutes, then lysed in PBS, 1% Triton X-100, 1 mM sodium orthovanadate in the presence of mammalian protease inhibitor solution (Sigma). Lysates were pre-cleared by centrifugation, followed by incubation with streptavidin Sepharose. Peptide or EAT-2-coated streptavidin beads were incubated with NK92 lysates for 2 hours at 4°C with rotation. Beads were washed once with 15 ml ice cold PBS/1% (v/v) Triton X-100. Bound protein was eluted using 100 mM glycine-HCl pH 2.5.
Protein samples were prepared for mass spectrometry as described previously. Briefly, eluted proteins were spun onto the membranes of Vivacon 500 filters (10,000 MWCO – Sartorius). Membranes were washed once with PBS then proteins were denatured with 8 M urea, reduced with 10 mM DTT in 25 mM ammonium bicarbonate buffer, followed by alkylation with 50 mM iodoacetamide. Proteins were then digested overnight with trypsin. Tryptic peptides were then eluted from the membrane and analyzed on an Ultimate 3000 HPLC-coupled Orbitrap XL mass spectrometer. Proteins were identified by liquid chromatography-coupled tandem mass-spectrometry (LC-MS/MS). Raw data files were converted to mzXML format using ReADW (v. 4.2.1) and submitted to the Central Proteomics Facilities Pipeline for database comparison and peptide identification. Searching against the International Protein Index (IPI) human protein sequence database for protein identification, protein and peptide hits were statistically validated by applying a 1% false discovery rate (FDR) by searching against a concatenated target/decoy database. Datasets were searched with variable peptide modifications for phosphotyrosine, phosphoserine, phosphothreonine, oxidation of methionine and deamination.
Protein identification data were exported into ProteinCenter (v3.8.3013 – Thermo Fisher) for filtering and annotation. Results were filtered to remove any proteins with less than 3 unique peptides, less than 10 percent sequence coverage, or median protein probability scores less than 0.5. To establish sample specificity, any protein with at least 10-fold greater sequence coverage in one sample compared with the other was considered to be specific for that sample.
Similarly, differences in specificity of inhibitory SH2 domain containing proteins for ITSMs are relevant to understanding mechanisms of inhibition by ITSMs. We focused on CD244 ITSMs to establish general paradigms.

NK92 cells = assay: IFNγ production by NK92 cells; assay type: cell-based, human; conditions: TJW, unpublished

Molecule	intracellular EAT-2 concentration after 50% knockdown (EAT-2)	pull-down by CD244 ITSM1 [1]	effect on IFNγ production by NK92 cells (NK92 cells)
EAT-2: small SH2 domain containing adapter protein (protein, left off: His tag, end not stated, state not stated, small SH2 domain containing adapter protein) MDLPYYHGRLTKQDCETLLLKEGVDGNFLLRDSESIPGVLCLCVSFKNIVYTYRIFREKHGYYRIQTAEGSPKQVFPSLKELISKFEKPNQGMVVHLLKPIKRTSPSLRWRGLKLELETFVNSNSDYVDVLP	approximately 0.2 μM	identifying SAP and EAT-2	
PLCγ2: phospholipase C gamma-2 (protein) MSTTVNVDSLAEYEKSQIKRALELGTVMTVFSFRKSTPERRTVQVIMETRQVAWSKTADKIEGFLDIMEIKEIRPGKNSKDFERAKAVRQKEDCCFTILYGTQFVLSTLSLAADSKEDAVNWLSGLKILHQEAMNASTPTIIESWLRKQIYSVDQTRRNSISLRELKTILPLINFKVSSAKFLKDKFVEIGAHKDELSFEQFHLFYKKLMFEQQKSILDEFKKDSSVFILGNTDRPDASAVYLHDFQRFLIHEQQEHWAQDLNKVRERMTKFIDDTMRETAEPFLFVDEFLTYLFSRENSIWDEKYDAVDMQDMNNPLSHYWISSSHNTYLTGDQLRSESSPEAYIRCLRMGCRCIELDCWDGPDGKPVIYHGWTRTTKIKFDDVVQAIKDHAFVTSSFPVILSIEEHCSVEQQRHMAKAFKEVFGDLLLTKPTEASADQLPSPSQLREKIIIKHKKLGPRGDVDVNMEDKKDEHKQQGELYMWDSIDQKWTRHYCAIADAKLSFSDDIEQTMEEEVPQDIPPTELHFGEKWFHKKVEKRTSAEKLLQEYCMETGGKDGTFLVRESETFPNDYTLSFWRSGRVQHCRIRSTMEGGTLKYYLTDNLTFSSIYALIQHYRETHLRCAEFELRLTDPVPNPNPHESKPWYYDSLSRGEAEDMLMRIPRDGAFLIRKREGSDSYAITFRARGKVKHCRINRDGRHFVLGTSAYFESLVELVSYYEKHSLYRKMRLRYPVTPELLERYNMERDINSLYDVSRMYVDPSEINPSMPQRTVKALYDYKAKRSDELSFCRGALIHNVSKEPGGWWKGDYGTRIQQYFPSNYVEDISTADFEELEKQIIEDNPLGSLCRGILDLNTYNVVKAPQGKNQKSFVFILEPKQQGDPPVEFATDRVEELFEWFQSIREITWKIDTKENNMKYWEKNQSIAIELSDLVVYCKPTSKTKDNLENPDFREIRSFVETKADSIIRQKPVDLLKYNQKGLTRVYPKGQRVDSSNYDPFRLWLCGSQMVALNFQTADKYMQMNHALFSLNGRTGYVLQPESMRTEKYDPMPPESQRKILMTLTVKVLGARHLPKLGRSIACPFVEVEICGAEYDNNKFKTTVVNDNGLSPIWAPTQEKVTFEIYDPNLAFLRFVVYEEDMFSDPNFLAHATYPIKAVKSGFRSVPLKNGYSEDIELASLLVFCEMRPVLESEEELYSSCRQLRRRQEELNNQLFLYDTHQNLRNANRDALVKEFSVNENQLQLYQEKCNKRLREKRVSNSKFYS			activating
SAP: small SH2 domain containing adapter protein (protein, UniProt O60880 1-128, looked up) SH2 domain-containing protein …: MDAVAVYHGKISRETGEKLLLATGLDGSYLLRDSESVPGVYCLCVLYHGYIYTYRVSQTETGSWSAETAPGVHKRYFRKIKNLISAFQKPDQGIVIPLQYPVEKKSSARSTQGTTGIREDPDVCLKAP		identifying SAP and EAT-2	
c-Src Tyrosine Kinase (CSK): SH2 domain containing protein pulled down by CD244 ITSM1 (protein) MSAIQAAWPSGTECIAKYNFHGTAEQDLPFCKGDVLTIVAVTKDPNWYKAKNKVGREGIIPANYVQKREGVKAGTKLSLMPWFHGKITREQAERLLYPPETGLFLVRESTNYPGDYTLCVSCDGKVEHYRIMYHASKLSIDEEVYFENLMQLVEHYTSDADGLCTRLIKPKVMEGTVAAQDEFYRSGWALNMKELKLLQTIGKGEFGDVMLGDYRGNKVAVKCIKNDATAQAFLAEASVMTQLRHSNLVQLLGVIVEEKGGLYIVTEYMAKGSLVDYLRSRGRSVLGGDCLLKFSLDVCEAMEYLEGNNFVHRDLAARNVLVSEDNVAKVSDFGLTKEASSTQDTGKLPVKWTAPEALREKKFSTKSDVWSFGILLWEIYSFGRVPYPRIPLKDVVPRVEKGYKMDAPDGCPPAVYEVMKNCWHLDAAMRPSFLQLREQLEHIKTHELHL		pulled down by the ITSM peptide	
